Results reported in patent US20260241049A1, “Radiopharmaceutical Compositions Targeting Glypican-3 and Uses Thereof” (RayzeBio, Inc., priority 2023, published 2026).
Starred links: 1 amine or outer side, 2 acyl side, 3 side chain; linkers in the order of their positions; H or OH if unused. Positions of bridges follow the written chain, without caps; N, C: chain ends. Non-standard residues stand in square brackets, D forms with d. Primed or numbered codes have the meaning given here. MeKCOpipzaa″ = (2S)-6-{[4-(carboxymethyl)piperazine-1-carbonyl]amino}-2-(methylamino)hexanoic acid, CN([C@@H](CCCCNC(=O)N1CCN(CC(=O)[*:3])CC1)C(=O)[*:2])[*:1]; MeDapCOpipzaa = 3-(4-(carboxymethyl)piperazine-1-carboxamido)-2-(methylamino)propanoic acid, CN([C@@H](CNC(=O)N1CCN(CC(=O)[*:3])CC1)C(=O)[*:2])[*:1]; MeKCOpipzaa = N-alpha-methyl-N6-[4-(carboxymethyl)piperazine-1-carbonyl]-L-lysine, CN([C@@H](CCCCNC(=O)N1CCN(CC(=O)[*:3])CC1)C(=O)[*:2])[*:1]; MeA4paa = 3-(1-(carboxymethyl)piperidin-4-yl)-2-(methylamino)propanoic acid, CN([C@@H](CC1CCN(CC(=O)[*:3])CC1)C(=O)[*:2])[*:1]; W5N = 2-amino-3-(1H-pyrrolo[3,2-c]pyridin-3-yl)propanoic acid (5-aza-tryptophan), O=C([C@H](Cc1c[nH]c2ccncc12)N[*:1])[*:2]; 3Py6NHaa = 2-amino-3-(6-((carboxymethyl)amino)pyridin-3-yl)propanoic acid, O=C([C@H](Cc1ccc(NCC(=O)[*:3])nc1)N[*:1])[*:2]; MeHseMe(3) = N-methyl-O-methyl-homoserine, 4-methoxy-2-(methylamino)butanoic acid, COCC[C@@H](C(=O)[*:2])N(C)[*:1]; F4aao″ = 2-amino-3-(4-(carboxymethoxy)phenyl)propanoic acid, O=C([C@H](Cc1ccc(OCC(=O)[*:3])cc1)N[*:1])[*:2]; TMe(3) = O-methyl-L-threonine ((2S,3R)-2-amino-3-methoxybutanoic acid), CO[C@H](C)[C@H](N[*:1])C(=O)[*:2]; F4aao = 4-(carboxymethoxy)-L-phenylalanine, O=C([C@H](Cc1ccc(OCC(=O)[*:3])cc1)N[*:1])[*:2]; MeHseMe = N-methyl-O-methyl-L-homoserine, COCC[C@@H](C(=O)[*:2])N(C)[*:1]; Thr(Me)(3) = TMe, O-methyl-L-threonine, CO[C@H](C)[C@H](N[*:1])C(=O)[*:2]; Thr(Me)″ = TMe = O-methyl-L-threonine, CO[C@H](C)[C@H](N[*:1])C(=O)[*:2]; Phe(4-(1-Me-pyrazol-4-yl)) = Cn1cc(-c2ccc(C[C@H](N)C(=O)O)cc2)cn1; TMe = O-methyl-L-threonine, CO[C@H](C)[C@H](N[*:1])C(=O)[*:2]; NMeAla(isoquinolin-7-yl) = CN[C@@H](Cc1ccc2ccncc2c1)C(=O)O; SulfoCy5(3) = sulfo-Cyanine5 hexanoyl dye on the lysine NZ; Phe(4-CH2COOH) = N[C@@H](Cc1ccc(CC(=O)O)cc1)C(=O)O; 3Pal(6-Ph) = N[C@@H](Cc1ccc(-c2ccccc2)nc1)C(=O)O; Phe(4-COOH) = N[C@@H](Cc1ccc(C(=O)O)cc1)C(=O)O; S3REt = (3R)-2-amino-3-hydroxypentanoic acid; NMe2Nal = CN[C@@H](Cc1ccc2ccccc2c1)C(=O)O; AEF = NCCOc1ccc(C[C@H](N)C(=O)O)cc1; NMe3Pal = CN[C@@H](Cc1cccnc1)C(=O)O; NMeY = CN[C@@H](Cc1ccc(O)cc1)C(=O)O; NMeI = CC[C@H](C)[C@H](NC)C(=O)O; aIle = CC[C@@H](C)[C@H](N)C(=O)O; NMeQ = CN[C@@H](CCC(N)=O)C(=O)O; NMeK = CN[C@@H](CCCCN)C(=O)O; NMeC = CN[C@@H](CS)C(=O)O; NMeA = CN[C@@H](C)C(=O)O; MeK = methyl-L-lysine

B1: Macrocyclic peptide of Example 2-26 (SEQ ID No. 30) (peptide)
peptide: {CH2CO}-[NMeK][NMeI]D[NMeQ][Phe(4-COOH)][Thr(Me)(3)]I[F4aao][NMeAla(isoquinolin-7-yl)]G[3Pal(6-Ph)][NMeC]-NH2
modifications: thioether N-12
SMILES: CC[C@H](C)[C@@H]1NC(=O)[C@H]([C@@H](C)OC)NC(=O)[C@H](Cc2ccc(C(=O)O)cc2)NC(=O)[C@H](CCC(N)=O)N(C)C(=O)[C@H](CC(=O)O)NC(=O)[C@H]([C@@H](C)CC)N(C)C(=O)[C@H](CCCCN)N(C)C(=O)CSC[C@@H](C(N)=O)N(C)C(=O)[C@H](Cc2ccc(-c3ccccc3)nc2)NC(=O)CNC(=O)[C@H](Cc2ccc3ccncc3c2)N(C)C(=O)[C@H](Cc2ccc(OCC(=O)O)cc2)NC1=O
B2: Macrocyclic peptide of Example 2-39 (SEQ ID No. 67) (peptide)
peptide: ASDYIIYFGXC
modifications: not fully specified; MeA-S-(position 3 absent)-D-Y-I-I-Y-MeNal2-G-3Py6Ph-MeC-NH2; thioether ring from N-terminal acetyl to MeC
notes: 11 residues
B3: Macrocyclic peptide of Example 2-41 (SEQ ID No. 68) (peptide)
peptide: {CH2CO}-[NMeA]S[W5N]YIIY[NMe2Nal]G[3Pal(6-Ph)][NMeC]-NH2
modifications: thioether N-11
SMILES: CC[C@H](C)[C@@H]1NC(=O)[C@H](Cc2ccc(O)cc2)NC(=O)[C@H](Cc2c[nH]c3ccncc23)NC(=O)[C@H](CO)NC(=O)[C@H](C)N(C)C(=O)CSC[C@@H](C(N)=O)N(C)C(=O)[C@H](Cc2ccc(-c3ccccc3)nc2)NC(=O)CNC(=O)[C@H](Cc2ccc3ccccc3c2)N(C)C(=O)[C@H](Cc2ccc(O)cc2)NC(=O)[C@H]([C@@H](C)CC)NC1=O
notes: 11 residues
B4: Macrocyclic peptide of Example 2-44 (SEQ ID No. 69) (peptide)
peptide: {CH2CO}-[NMeA][NMe3Pal]DY[aIle]IY[NMe2Nal]G[3Pal(6-Ph)][NMeC]-NH2
modifications: thioether N-11
SMILES: CC[C@@H](C)[C@@H]1NC(=O)[C@H](Cc2ccc(O)cc2)NC(=O)[C@H](CC(=O)O)NC(=O)[C@H](Cc2cccnc2)N(C)C(=O)[C@H](C)N(C)C(=O)CSC[C@@H](C(N)=O)N(C)C(=O)[C@H](Cc2ccc(-c3ccccc3)nc2)NC(=O)CNC(=O)[C@H](Cc2ccc3ccccc3c2)N(C)C(=O)[C@H](Cc2ccc(O)cc2)NC(=O)[C@H]([C@@H](C)CC)NC1=O
notes: 11 residues
B5: Macrocyclic peptide of Example 2-42 (SEQ ID No. 31) (peptide)
peptide: {CH2CO}-[NMeK][NMeI]D[NMeQ][Phe(4-COOH)][TMe]I[F4aao″][NMeAla(isoquinolin-7-yl)]G[3Pal(6-Ph)][NMeC][dE]-NH2
modifications: thioether N-12
SMILES: CC[C@H](C)[C@@H]1NC(=O)[C@H]([C@@H](C)OC)NC(=O)[C@H](Cc2ccc(C(=O)O)cc2)NC(=O)[C@H](CCC(N)=O)N(C)C(=O)[C@H](CC(=O)O)NC(=O)[C@H]([C@@H](C)CC)N(C)C(=O)[C@H](CCCCN)N(C)C(=O)CSC[C@@H](C(=O)N[C@H](CCC(=O)O)C(N)=O)N(C)C(=O)[C@H](Cc2ccc(-c3ccccc3)nc2)NC(=O)CNC(=O)[C@H](Cc2ccc3ccncc3c2)N(C)C(=O)[C@H](Cc2ccc(OCC(=O)O)cc2)NC1=O
B6: Macrocyclic peptide of Example 2-43 (SEQ ID No. 32) (peptide)
peptide: {CH2CO}-[NMeK][NMeI]D[NMeQ][Phe(4-COOH)][TMe]I[F4aao″][NMeAla(isoquinolin-7-yl)]G[3Pal(6-Ph)][NMeC]E-NH2
modifications: thioether N-12
SMILES: CC[C@H](C)[C@@H]1NC(=O)[C@H]([C@@H](C)OC)NC(=O)[C@H](Cc2ccc(C(=O)O)cc2)NC(=O)[C@H](CCC(N)=O)N(C)C(=O)[C@H](CC(=O)O)NC(=O)[C@H]([C@@H](C)CC)N(C)C(=O)[C@H](CCCCN)N(C)C(=O)CSC[C@@H](C(=O)N[C@@H](CCC(=O)O)C(N)=O)N(C)C(=O)[C@H](Cc2ccc(-c3ccccc3)nc2)NC(=O)CNC(=O)[C@H](Cc2ccc3ccncc3c2)N(C)C(=O)[C@H](Cc2ccc(OCC(=O)O)cc2)NC1=O
B7: Macrocyclic peptide of Example 2-32 (SEQ ID No. 49) (peptide)
peptide: KKDKFTIFFGXC
modifications: not fully specified; MeK-MeKCOpipzaa-D-MeKCOpipzaa-F4COO-TMe-I-F4aaopipzaa-MeNal27N-G-3Py6Ph-MeC-NH2; thioether ring from N-terminal acetyl to MeC12
B8: Macrocyclic peptide of Example 2-40 (SEQ ID No. 66) (peptide)
peptide: {CH2CO}-[NMeA][NMeY]DY[TMe]IY[NMe2Nal]G[3Pal(6-Ph)][NMeC]-NH2
modifications: thioether N-11
SMILES: CC[C@H](C)[C@@H]1NC(=O)[C@H]([C@@H](C)OC)NC(=O)[C@H](Cc2ccc(O)cc2)NC(=O)[C@H](CC(=O)O)NC(=O)[C@H](Cc2ccc(O)cc2)N(C)C(=O)[C@H](C)N(C)C(=O)CSC[C@@H](C(N)=O)N(C)C(=O)[C@H](Cc2ccc(-c3ccccc3)nc2)NC(=O)CNC(=O)[C@H](Cc2ccc3ccccc3c2)N(C)C(=O)[C@H](Cc2ccc(O)cc2)NC1=O
notes: 11 residues
B9: Macrocyclic peptide of Example 2-38 (SEQ ID No. 55) (peptide)
peptide: KSDXFTIXFGXC
modifications: not fully specified; MeKCOpipzaa-MeHseMe-D-MeDapCOpipzaa-F4COO-TMe-I-Yae-MeNal27N-G-3Py6Ph-MeC-NH2; thioether ring from N-terminal acetyl to MeC12

These binders were tested against T1, Human Glypican3-Fc (ACRO Biosystems, GP3-H5258) (human, UniProt P51654 25-559) (assay: SPR (Biacore T200), Method B-3: Glypican3-Fc captured on Protein A chip, peptide as analyte).
T1 construct: Bought fusion protein, captured in Methods B-2, B-3 and B-4; Catalogue number is printed only in Method B-2; not shown: Fc part of the bought fusion
Method: A Protein A sensor chip (Cytiva) was inserted into a Biacore T200 (Cytiva), priming was performed three times with a running buffer: HBS-P+, pH 7.4 (Cytiva), and equilibration was carried out at a flow rate of 30 μL/min. Glypican3-Fc was allowed to react for 60 seconds at a flow rate of 10 μL/min. After capturing human Glypican3-Fe, a peptide solution prepared to 10 mM in DMSO solution was diluted with a running buffer to a final concentration of 10 μM. […] Using the above samples, peptide kinetics for Glypican3 was obtained by SPR measurement. Kinetics evaluation of Glypican3 was performed by SPR measurements at a flow rate of 10 LL/min, setting the association time to 120 seconds and the disassociation time to 600 seconds.
The obtained data by Method B-1, Method B-2, Method B-3 and Method B-4 were analyzed by follow. Single Cycle Kinetics was used as the kinetics evaluation model, and curve fitting was performed using Biacore T200 Evaluation Software Version 3.0 (Cytiva).

First: {CH2CO}-[NMeK](SulfoCy5(3))[NMeI]D[NMeQ][Phe(4-COOH)]IIY[NMeAla(isoquinolin-7-yl)]G[3Pal(6-Ph)][NMeC]-NH2 (thioether N-12) [PLD-1]
Second: {CH2CO}-[MeK][NMeQ]D[MeA4paa][Phe(4-COOH)][TMe(3)]I[Phe(4-CH2COOH)][NMe2Nal]G[Phe(4-(1-Me-pyrazol-4-yl))][NMeC]-NH2 (thioether N-12) [Macrocyclic peptide of Example 2-51 (SEQ ID No. 25)]
The Kd of the first is 7.8-fold lower: 0.32 nM for the first, 2.5 nM for the second. The first binds more tightly here.

Going from {CH2CO}-[NMeK][MeKCOpipzaa]D[MeDapCOpipzaa][3Py6NHaa][Thr(Me)″]I[F4aao][NMeAla(isoquinolin-7-yl)]G[3Pal(6-Ph)][NMeC]-NH2 (thioether N-12) [Macrocyclic peptide of Example 2-30 (SEQ ID No. 47)] to B1, the Kd falls from 6.6 nM to 0.3 nM (22-fold). The second binds more tightly here.

Compared with B2, B3 is 2.3-fold higher in Kd: 25.3 nM for the first, 58.5 nM for the second.

Compared with B4, B5 is 15-fold lower in Kd: 49.1 nM for the first, 3.2 nM for the second. The second binds more tightly here.

First: {CH2CO}-[MeKCOpipzaa″][MeHseMe]D[NMeQ][Phe(4-COOH)][S3REt]IY[NMeAla(isoquinolin-7-yl)]G[3Pal(6-Ph)][NMeC]-NH2 (thioether N-12) [Macrocyclic peptide of Example 2-25 (SEQ ID No. 59)]
Second: {CH2CO}-[NMeA][MeHseMe]D[NMeQ][Phe(4-COOH)][Thr(Me)″]I[AEF][NMe2Nal]G[3Pal(6-Ph)][NMeC]-NH2 (thioether N-12) [Macrocyclic peptide of Example 2-28 (SEQ ID No. 44)]
The Kd of the first is 22-fold higher: 6.6 nM for the first, 0.3 nM for the second.

Going from B6 to B7, the Kd falls from 9.3 nM to 1.8 nM (5.2-fold).

Going from {CH2CO}-[NMeK][MeKCOpipzaa]D[MeDapCOpipzaa][Phe(4-COOH)][Thr(Me)″]I[F4aao][NMeAla(isoquinolin-7-yl)]G[3Pal(6-Ph)][NMeC]-NH2 (thioether N-12) [Macrocyclic peptide of Example 2-29 (SEQ ID No. 46)] to B8, the Kd rises from 1 nM to 21.5 nM (22-fold).

Going from {CH2CO}-[MeK][MeHseMe(3)]D[NMeQ][Phe(4-COOH)]II[Phe(4-CH2COOH)][NMe2Nal]G[3Pal(6-Ph)][NMeC]-NH2 (thioether N-12) [Macrocyclic peptide of Example 2-47 (SEQ ID No. 21)] to {CH2CO}-[MeK][MeHseMe(3)]D[NMeQ][Phe(4-COOH)]II[Phe(4-CH2COOH)][NMe2Nal]G[Phe(4-(1-Me-pyrazol-4-yl))][NMeC]-NH2 (thioether N-12) [Macrocyclic peptide of Example 2-48 (SEQ ID No. 22)], the Kd rises from 0.2 nM to 0.5 nM (2.5-fold).

First: B9
Second: {CH2CO}-[MeK][NMeI]Q[NMeQ][Phe(4-COOH)]II[Phe(4-COOH)][NMe2Nal]G[Phe(4-(1-Me-pyrazol-4-yl))][NMeC]-NH2 (thioether N-12) [Macrocyclic peptide of Example 2-46 (SEQ ID No. 6)]
The Kd of the first is 9-fold higher: 1.8 nM for the first, 0.2 nM for the second. The second binds more tightly here.
